Series [1] deals with the molecule itself. Briefly: NMR 15N spin relaxation (overall correlation time against that computed for the helix); 0.05 and 0.5 mM XS20, 0.5 mM XS23, 0.5 mM XS26 in NMR buffer (5 mM KPi, 10 mM NaCl, 2 mM β-mercaptoethanol, pH 6.8), 25 °C, 800 MHz.
Series [2] concerns the target T1, human HSP90β (named HSP90) (human, UniProt P08238 1-724).
T1 construct: Unlabelled in the NMR titrations
Put plainly: NMR titration; 15N-HSQC signal intensity; 0.07 mM 15N/13C XS26 with fresh 0.14 mM unlabelled HSP70 or HSP90 (1:2), 25 °C, 20 mM Hepes, 10 mM NaCl, 5 mM MgCl2, 2 mM ATP, 1 mM DTT, pH 6.8. Particulars: both partners purified.

In series [3] the target is T2, human HSP72 (named HSP70) (human, UniProt P0DMV8 1-641).
T2 construct: Unlabelled in the NMR titrations; 2 mM ATP and 5 mM MgCl2 in the buffer
The series is described as above. To be noted: both partners purified.

Series [4] deals with the molecule itself. Put plainly: NMR 15N spin relaxation (overall correlation time against that computed for the helix); 0.5 mM 15N/13C XS20 in NMR buffer (5 mM KPi, 10 mM NaCl, 2 mM β-mercaptoethanol, pH 6.8), 5 °C, 800 MHz.

T2 sequence (P0DMV8 whole entry): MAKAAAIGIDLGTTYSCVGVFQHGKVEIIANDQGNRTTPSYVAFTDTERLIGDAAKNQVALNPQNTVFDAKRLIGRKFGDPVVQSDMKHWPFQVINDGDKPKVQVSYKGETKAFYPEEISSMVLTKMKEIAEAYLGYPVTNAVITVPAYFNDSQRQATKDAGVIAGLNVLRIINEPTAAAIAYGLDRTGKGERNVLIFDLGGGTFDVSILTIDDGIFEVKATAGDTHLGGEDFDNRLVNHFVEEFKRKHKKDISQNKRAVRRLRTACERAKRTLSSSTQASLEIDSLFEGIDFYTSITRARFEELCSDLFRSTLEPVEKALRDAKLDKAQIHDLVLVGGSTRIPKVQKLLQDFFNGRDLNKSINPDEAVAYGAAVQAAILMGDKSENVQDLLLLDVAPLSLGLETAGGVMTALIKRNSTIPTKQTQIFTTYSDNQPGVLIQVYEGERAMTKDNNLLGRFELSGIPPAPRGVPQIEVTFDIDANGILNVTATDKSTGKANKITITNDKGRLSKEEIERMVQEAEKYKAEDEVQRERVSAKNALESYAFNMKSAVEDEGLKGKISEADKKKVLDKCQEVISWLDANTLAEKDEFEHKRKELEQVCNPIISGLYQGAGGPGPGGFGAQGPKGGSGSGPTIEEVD
T1 sequence (P08238 whole entry): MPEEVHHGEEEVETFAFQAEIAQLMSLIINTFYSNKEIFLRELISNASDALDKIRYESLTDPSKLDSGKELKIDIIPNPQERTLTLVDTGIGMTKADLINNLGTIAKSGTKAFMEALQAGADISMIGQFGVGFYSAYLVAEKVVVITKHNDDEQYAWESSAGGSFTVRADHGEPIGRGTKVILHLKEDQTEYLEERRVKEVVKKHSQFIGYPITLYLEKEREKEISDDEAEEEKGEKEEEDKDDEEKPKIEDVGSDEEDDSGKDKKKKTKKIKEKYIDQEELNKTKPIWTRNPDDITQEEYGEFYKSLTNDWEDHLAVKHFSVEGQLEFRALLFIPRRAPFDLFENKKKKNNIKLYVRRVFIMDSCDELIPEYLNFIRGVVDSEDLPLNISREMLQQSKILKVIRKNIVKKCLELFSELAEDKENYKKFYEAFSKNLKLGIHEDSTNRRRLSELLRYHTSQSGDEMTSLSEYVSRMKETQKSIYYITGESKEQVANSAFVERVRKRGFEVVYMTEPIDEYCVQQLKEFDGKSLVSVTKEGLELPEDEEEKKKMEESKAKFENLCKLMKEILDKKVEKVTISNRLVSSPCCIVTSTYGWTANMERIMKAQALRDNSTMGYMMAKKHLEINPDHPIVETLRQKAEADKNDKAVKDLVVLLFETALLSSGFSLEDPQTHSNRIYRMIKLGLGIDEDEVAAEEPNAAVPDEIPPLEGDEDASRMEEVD

B1: human PHOX2B fragment 228-314 with a +3 Ala expansion (XS23) (domain or fragment, UniProt Q99453 228-314, looked up)
chain: GPGGPGGEPGKGGAAAAAAAAAAAAAAAAAAAAAAAGGLAAAGGPGQGWAPGPGPITSIPDSLGGPFASVLSSLQRPNGAKAALVKSSMF
notes: PHOX2B, human, residues 228-314 (wild-type numbering) with 3 alanines added to the 20-alanine tract (241-260); Made by mutagenic PCR; 15N/13C-labelled for NMR; also called +3 Ala variant; +3 PARM; not shown: Thioredoxin, N-terminal, cleaved; His6, N-terminal, cleaved
As for B1, the binding result in series [1] is listed as “binds”.

B2: human PHOX2B fragment 228-314 with a +6 Ala expansion (XS26) (domain or fragment, UniProt Q99453 228-314, looked up)
chain: GPGGPGGEPGKGGAAAAAAAAAAAAAAAAAAAAAAAAAAGGLAAAGGPGQGWAPGPGPITSIPDSLGGPFASVLSSLQRPNGAKAALVKSSMF
notes: Made by mutagenic PCR; 15N/13C-labelled for NMR titrations; also called +6 Ala variant; expanded PHOX2B; not shown: Thioredoxin, N-terminal, cleaved; His6, N-terminal, cleaved
As for B2, the binding result in series [2], in series [3] and in series [1] was “binds” each time.

B3: human PHOX2B fragment 228-314 (XS20) (domain or fragment, UniProt Q99453 228-314, looked up)
chain: GPGGPGGEPGKGGAAAAAAAAAAAAAAAAAAAAGGLAAAGGPGQGWAPGPGPITSIPDSLGGPFASVLSSLQRPNGAKAALVKSSMF
notes: Paired mesoderm homeobox protein 2B (PHOX2B), human, residues 228-314, holds the 20-alanine tract (residues 241-260); 15N/13C-labelled for NMR; also called PHOX2B C-terminal fragment; wild-type PHOX2B; not shown: Thioredoxin, N-terminal, cleaved; His6, N-terminal, cleaved
Regarding B3, in series [4], the binding result is on record as “binds”.

The values above are taken from PMC10908835, “Alternative low-populated conformations prompt phase transitions in polyalanine repeat expansions” (Nature Communications, 2024).
